# Data taken from patent publication US20110033543A1 (UNIVERSITY OF DELAWARE, published 2011).
# Ends that are not written are not given here.
# Tests used:
# [1] = biological target: the molecule itself; experiment: circular dichroism, concentration dependence of MRE at 222 nm in PBS, fit for the Kd of the dimerization; isolated PF4ZIP, not conjugated to PEG
# Description: Samples were equilibrated at the desired temperature for 30 minutes prior to data collection; equilibration was indicated by the absence of further changes in the CD signal at longer equilibration times. All CD spectra were taken in a 1 mm path length quartz cuvette, at wavelengths from 200 to 250 nm. Data points were recorded at every nanometer with a 4.0 s response time. The concentrations of peptide samples were determined via amino acid analysis for calculation of mean residue ellipticities.
# The conformation of PF₄ZIP at various concentrations was also monitored via CD. […] The difference between the measured ellipticity and the ellipticity of the unfolded monomer is related to concentration and can be fit to determine the Kd of the dimerization, via standard fitting procedures well-described in the literature.
# streptavidin (SA chip) = biological target: T1, streptavidin (SA chip) (UniProt P22629 37-163, limits assumed); experiment: SPR, Biacore 3000, streptavidin-coated chip
# T1 construct: Chip surface of the SPR experiments; also called SA chips; streptavidin-coated chip
# T1 sequence (P22629 37-163 limits assumed): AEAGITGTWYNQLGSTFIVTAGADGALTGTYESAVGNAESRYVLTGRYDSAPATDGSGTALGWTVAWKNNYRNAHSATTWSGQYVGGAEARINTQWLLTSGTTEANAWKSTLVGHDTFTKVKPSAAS
# Description: Surface Plasmon Resonance (SPR). SPR sensorgrams were recorded on a BiaCore 3000 instrument (Biacore Inc, Piscataway, N.J.), employing a high-capacity LMWH surface created on a commercially available streptavidin-coated chip via treatment with biotinylated LMWH.
# In SPR experiments, the interaction of the peptides with a LMWH-modified SA chip surface was determined under conditions described in the experimental section.
binder,measurement,setting,value
"CGGRMKQLEDKVKKLLKKNYHLENEVARLKKLVG-NH2 (also: coiled-coil dimer, also called coiled-coil PF4ZIP) [PF4ZIP]",Kd,[1],3.48 µM
same,binding result,streptavidin (SA chip),no binding
